The target of assay [1] is HLA-A*31:01. Put plainly: IEDB peptide-MHC binding, purified MHC/competitive/radioactivity; filed as Kd, often an IC50 or EC50 that approximates it; ≥ and ≤ were set here for values at or beyond the usual limits of such assays. Particulars: source organism: Vaccinia virus WR.
Assay [2] addresses HLA-A*03:01. The assay is described as above. The settings on record: source organism: Vaccinia virus WR.
Assay [3] deals with HLA-A*33:01. Described as above. Particulars: source organism: Vaccinia virus WR.
Assay [4] deals with HLA-A*68:01. The assay is described as above. The settings on record: source organism: Vaccinia virus WR.
Assay [5] deals with HLA-A*11:01. The description is as above. Particulars: source organism: Vaccinia virus WR.
Assay [6] has as its target HLA-B*15:01. Put plainly: IEDB peptide-MHC binding, purified MHC/competitive/fluorescence; ≥ and ≤ were set here for values at or beyond the usual limits of such assays. The settings on record: source organism: Vaccinia virus Copenhagen.
Assay [7] deals with HLA-A*01:01. The description is as above.
Assay [8] has as its target HLA-B*53:01. Put plainly: IEDB peptide-MHC binding, purified MHC/competitive/radioactivity; filed as Kd, often an IC50 or EC50 that approximates it; ≥ and ≤ were set here for values at or beyond the usual limits of such assays. The settings on record: source organism: Vaccinia virus WR.
Assay [9] has as its target HLA-B*07:02. Described as above. The settings on record: source organism: Vaccinia virus WR.
The target in assay [10] is HLA-B*54:01. Described as above. Particulars: source organism: Vaccinia virus WR.
For assay [11], the target named is HLA-B*35:01. The assay is described as above. Particulars: source organism: Vaccinia virus WR.
The target in assay [12] is HLA-B*51:01. The assay is described as above. Particulars: source organism: Vaccinia virus WR.
In assay [13] the target is HLA-A*02:01. Put plainly: IEDB peptide-MHC binding, purified MHC/competitive/fluorescence; filed as Kd, often an IC50 or EC50 that approximates it; ≥ and ≤ were set here for values at or beyond the usual limits of such assays.
The target of assay [14] is HLA-C*03:03. Put plainly: IEDB peptide-MHC binding, purified MHC/direct/fluorescence; filed as Kd, often an IC50 or EC50 that approximates it; ≥ and ≤ were set here for values at or beyond the usual limits of such assays.
Assay [15] addresses HLA-C*08:02. Described as above.
For assay [16], the target named is HLA-C*12:03. The assay is described as above.
The target of assay [17] is HLA-B*46:01. The assay is described as above. Particulars: source organism: Vibrio cholerae O1 biovar El Tor.
The target in assay [18] is HLA-B*27:03. The description is as above. The settings on record: source organism: Vibrio cholerae O1 biovar El Tor.
Assay [19] concerns the target HLA-B*18:01. The assay is described as above. The settings on record: source organism: Vibrio cholerae O1 biovar El Tor.
In assay [20] the target is HLA-A*03:01. The description is as above. The settings on record: source organism: Vibrio cholerae O1 biovar El Tor.
Assay [21] has as its target HLA-B*15:01. Described as above. The settings on record: source organism: Vibrio cholerae O1 biovar El Tor.
Assay [22] concerns the target HLA-A*26:01. The description is as above. The settings on record: source organism: Vibrio cholerae O1 biovar El Tor.
Assay [23] deals with HLA-A*02:19. The description is as above. The settings on record: source organism: Vibrio cholerae O1 biovar El Tor.
For assay [24], the target named is HLA-B*51:01. Described as above. The settings on record: source organism: Vibrio cholerae O1 biovar El Tor.
For assay [25], the target named is HLA-B*40:01. Briefly: IEDB peptide-MHC binding, purified MHC/competitive/fluorescence; filed as Kd, often an IC50 or EC50 that approximates it; ≥ and ≤ were set here for values at or beyond the usual limits of such assays. The settings on record: source organism: Escherichia coli 536.
In assay [26] the target is HLA-B*39:01. The description is as above. The settings on record: source organism: Escherichia coli 536.
Assay [27] addresses HLA-B*18:01. The assay is described as above. The settings on record: source organism: Homo sapiens.
Assay [28] deals with HLA-B*15:01. The assay is described as above. Particulars: source organism: Homo sapiens.
The target in assay [29] is HLA-B*51:01. The description is as above. Particulars: source organism: Homo sapiens.
Assay [30] addresses HLA-B*07:02. Briefly: IEDB peptide-MHC binding, purified MHC/direct/fluorescence; filed as Kd, often an IC50 or EC50 that approximates it; ≥ and ≤ were set here for values at or beyond the usual limits of such assays. Particulars: source organism: Macaca fascicularis.
Setting [31] is: source organism: Vaccinia virus Copenhagen.
Where [32] appears, read: source organism: Vibrio cholerae B33.

A value given as a limit tells only on which side of the number the result lay.

As usually defined, the Kd is the concentration at which binding is half-saturated. By IC50 is commonly meant the concentration needed to halve the response being measured. On to YVTLNASQY, for which the Kd in [1] was not below 51.4 µM; in [2] it was 4.77 µM; in assay [3], not below 77.7 µM; in [4], 0.0107 µM; in [5], 1.12 µM. Also, the IC50 in assay [6] worked out at 8.06 µM; in [7] (setting [31]), 17.1 µM.
RVYEALYYV: the Kd in [1] is 0.0137 µM; in assay [2], 0.717 µM; in [3] it was not below 77.7 µM; in assay [8] it was not below 78.2 µM; in assay [9], not below 53.8 µM; in assay [10] it was 6.41 µM. Further, the Kd in [11] is not below 77.4 µM; in [4], not below 77.7 µM; in assay [5], 0.0802 µM; in [12] it was not below 67.8 µM; in assay [13] (setting [31]) it was 0.0008 µM; in assay [14] (setting [31]) it was 1.25 µM. The Kd in assay [15] (setting [31]) is not below 20 µM; in assay [16] (setting [31]), 0.026 µM.
As to FATPAFFLI, the Kd in assay [14] (setting [32]) was not above 0.001 µM; in assay [15] (setting [32]), 0.198 µM; in [17], not below 20 µM; in assay [18] it was not below 20 µM; in assay [19] it was not below 20 µM; in [20], not below 20 µM. Also, the Kd was not below 20 µM in assay [21], not below 20 µM in assay [22], not below 20 µM in [23] and 0.859 µM in [24].
Turning to SSDPGTNTT, in assay [7] (source organism: Zaire ebolavirus), the IC50 is not below 162 µM.
Regarding EEQQSMLAL, the values for the Kd in assay [25] and in assay [26] were 0.0083 µM and 0.027 µM, respectively.
Regarding FAAPHRGVA, the Kd in [13] (source organism: Homo sapiens) is not below 20 µM; in assay [27], not below 20 µM; in assay [28], not below 20 µM; in assay [29], not below 20 µM; in assay [30], 0.0031 µM; in assay [16] (source organism: Homo sapiens), not above 0.001 µM.

The values are drawn from the Immune Epitope Database (IEDB).
